Test results: the Immune Epitope Database (IEDB)
pKd: −log10 of the molar value.

What was measured:
[1] = biological target: HLA-A*11:01; assay: IEDB peptide-MHC binding, purified MHC/competitive/fluorescence; filed as Kd, often an IC50 or EC50 that approximates it; ≥ and ≤ were set here for values at or beyond the usual limits of such assays; conditions: source organism: Campylobacter jejuni subsp. jejuni NCTC 11168 = ATCC 700819
[2] = biological target: HLA-A*02:01; assay: IEDB peptide-MHC binding, purified MHC/direct/fluorescence; filed as Kd, often an IC50 or EC50 that approximates it; ≥ and ≤ were set here for values at or beyond the usual limits of such assays
[3] = biological target: HLA-B*15:17; assay: as above
[4] = biological target: HLA-A*68:02; assay: as above
[5] = biological target: HLA-B*57:01; assay: as above
[6] = biological target: HLA-A*01:01; assay: as above
[7] = biological target: HLA-B*08:01; assay: as above
[8] = biological target: HLA-B*27:05; assay: as above; conditions: source organism: Campylobacter jejuni RM1221
[9] = biological target: HLA-A*31:01; assay: as above
[10] = biological target: HLA-B*48:01; assay: as above; conditions: source organism: Campylobacter jejuni RM1221
[11] = biological target: HLA-B*73:01; assay: as above; conditions: source organism: Campylobacter jejuni RM1221
[12] = biological target: HLA-B*18:01; assay: as above; conditions: source organism: Campylobacter jejuni RM1221
[13] = biological target: HLA-B*58:01; assay: as above
[14] = biological target: HLA-B*07:02; assay: as above
[15] = biological target: HLA-A*03:01; assay: as above; conditions: source organism: Campylobacter jejuni RM1221
[16] = biological target: HLA-B*15:01; assay: as above
[17] = biological target: HLA-A*69:01; assay: as above; conditions: source organism: Campylobacter jejuni RM1221
[18] = biological target: HLA-B*46:01; assay: as above; conditions: source organism: Orthohantavirus hantanense
[19] = biological target: HLA-B*15:02; assay: as above; conditions: source organism: Hantaan virus Q32
[20] = biological target: HLA-A*02:06; assay: IEDB peptide-MHC binding, purified MHC/competitive/fluorescence; filed as Kd, often an IC50 or EC50 that approximates it; ≥ and ≤ were set here for values at or beyond the usual limits of such assays; conditions: source organism: Mammarenavirus lassaense
[21] = biological target: HLA-B*18:01; assay: as above; conditions: source organism: Mammarenavirus lassaense
[22] = biological target: HLA-A*23:01; assay: IEDB peptide-MHC binding, purified MHC/direct/fluorescence; filed as Kd, often an IC50 or EC50 that approximates it; ≥ and ≤ were set here for values at or beyond the usual limits of such assays; conditions: source organism: Mammarenavirus lassaense
[23] = biological target: HLA-A*26:01; assay: as above; conditions: source organism: Mammarenavirus lassaense
[24] = biological target: HLA-A*11:01; assay: as above; conditions: source organism: Mammarenavirus lassaense
[25] = biological target: HLA-A*24:03; assay: as above; conditions: source organism: Mammarenavirus lassaense
[26] = biological target: HLA-A*24:02; assay: as above; conditions: source organism: Mammarenavirus lassaense
[27] = biological target: HLA-A*26:02; assay: as above; conditions: source organism: Mammarenavirus lassaense
[28] = biological target: HLA-B*08:03; assay: as above; conditions: source organism: Mammarenavirus lassaense
[29] = source organism: Campylobacter jejuni RM1221
[30] = source organism: Mammarenavirus lassaense

Measured: pKd

AKYEICLEK
≤ 4.70: [1] | [2]; [29] | [3]; [29] | [4]; [29] | [5]; [29] | [6]; [29] | [7]; source organism: Campylobacter jejuni subsp. jejuni 81-176 | [8] | [9]; [29] | [10] | [11] | [12] | [13]; [29] | [14]; [29] | [15] | [16]; [29] | [17]

FQHERLGQF
7.54: [19]
6.11: [18]
7.69: [16]; source organism: Orthohantavirus hantanense

GYAWIDFDI
6.39: [21]
8.43: [26]
8.47: [25]
8.41: [22]
≤ 4.70: [20] | [2]; [30] | [3]; [30] | [23] | [4]; [30] | [24] | [5]; [30] | [6]; [30] | [7]; [30] | [9]; [30] | [27] | [28] | [13]; [30] | [14]; [30] | [16]; [30]
